Molecular target: T1, IL-10R1 S138G homozygous mutant on primary B-CLL cells (human, UniProt Q13651 22-578)
T1 construct: Endogenous receptor on purified B-CLL cells of patients homozygous (GG) for the mutation; also called S159G of the IL-10R1 precursor; GG homozygous mutant
T1 sequence: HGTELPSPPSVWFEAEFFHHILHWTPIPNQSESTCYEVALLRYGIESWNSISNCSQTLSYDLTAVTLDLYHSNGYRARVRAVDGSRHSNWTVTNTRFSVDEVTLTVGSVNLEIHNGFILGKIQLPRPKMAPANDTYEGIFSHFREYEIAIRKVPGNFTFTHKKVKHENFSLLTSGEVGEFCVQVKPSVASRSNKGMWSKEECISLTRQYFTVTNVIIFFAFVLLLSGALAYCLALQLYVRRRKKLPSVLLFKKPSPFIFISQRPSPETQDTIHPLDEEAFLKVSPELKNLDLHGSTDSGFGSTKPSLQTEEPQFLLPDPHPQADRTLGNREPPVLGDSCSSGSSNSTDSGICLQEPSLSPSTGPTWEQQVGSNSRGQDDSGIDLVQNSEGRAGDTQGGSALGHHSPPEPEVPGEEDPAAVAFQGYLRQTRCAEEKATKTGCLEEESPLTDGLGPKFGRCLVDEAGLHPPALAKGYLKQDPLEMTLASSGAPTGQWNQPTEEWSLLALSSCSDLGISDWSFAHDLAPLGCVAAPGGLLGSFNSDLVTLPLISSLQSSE
Test: flow cytometry, biotinylated IL-10 plus avidin-FITC on primary B-CLL cells; weaker than on wild-type cells
Method: IL-10 binding with B-CLL cells was determined using Flurokine® Biotinylated Human Interleukin 10 Kit (R&D Systems) per the protocol. 25 μl (1×10⁵) purified B-CLL cells were incubated with 10 μl biotinylated negative control reagents or biotinylated IL-10 for 1-hour at 2-8° C., then incubated with 10 μl of avidin-FITC for a further 30 minutes at 2-8° C. in the dark. Wash the cells twice with 2 ml of 1×RDF buffer 2 times. Add 200 μl 1×RDF buffer into each tube and do flow cytometry analysis.

binding result: binds
B1: Biotinylated Human Interleukin 10 (Flurokine kit, R&D Systems) (ligand, UniProt P22301 19-178, looked up)
chain: SPGQGTQSENSCTHFPGNLPNMLRDLRDAFSRVKTFFQMKDQLDNLLLKESLLEDFKGYLGCQALSEMIQFYLEEVMPQAENQDPDIKAHVNSLGENLKTLRLRLRRCHRFLPCENKSKAVEQVKNAFNKLQEKGIYKAMSEFDIFINYIEAYMTMKIRN
modifications: biotinylated (sites not given) in the binding assay; unlabelled rh-IL-10 in the culture assays
notes: The STAT assays used rh-IL-10 (R&D Systems) at 10 ng/ml; also called IL-10; rh-IL-10

From patent US20160090637A1 (published 2016)
